For the series, the system named is MS2 coat protein. Description: apparent KD of MS2 coat protein; designed switch direction (-1 OFF switch, 1 ON switch): -1; higher = weaker reporter binding. In outline:
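The apparent KD reported per design is the median over clusters of curve fits to normalised cluster fluorescence. The RNA switches were transcribed on Illumina chips by stalled E. coli RNA polymerase. SNAP-549-labelled MS2 coat protein was titrated from 0.7 or 1.5 nM, doubling up to 3 µM, in Tris-HCl pH 7.5 buffer containing KCl, MgCl2, BSA, DTT, tRNA and Tween-20, with no input, 200 uM small-molecule ligand, or an oligonucleotide input.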

The mark [1] stands for this setting: input ligand: microRNA oligo, concentration not stated.
Setting [2] is: Eterna round: R95, input ligand: microRNA oligo, concentration not stated.
Where [3] appears, read: Eterna round: R95, input ligand: FMN 200 uM.
[4] abbreviates: Eterna round: R95, input ligand: none.

“AAGAAAGGUGACAUGGGUGACAUGAGGAUCACCCAUGUUACAAGCUUGUUGCUCGUCUUAUAAUUAACCCAUGUCAU [LRO Sensor-off var1-19 mod of Stov1-13-A1 by Brourd] (Eterna round: R97, puzzle: Sensor, turn-off variant 1)”: the “apparent KD of MS2 coat protein” value (input ligand: FMN 200 uM) is 55.3 nM and the “apparent KD of MS2 coat protein” value (input ligand: none) stood at 64.6 nM.

As for “AAGAACGGUAAGGAUAUCCAUGUGAAAUAAAGAGGAGAAGGUACCACAUGAGGAUCACCCAUGUGGCUCUCAAA [EX6 B.30] (Eterna round: R97, puzzle: Exclusion 6)”, the “apparent KD of MS2 coat protein” value is 13.8 nM (input ligand: FMN 200 uM) and 11.5 nM (input ligand: none).

As to “AAGAACGUACAAGGAUAUCUCCACCACAACGGCAGAGAAGGUGUACAUGAGGAUCACCCAUGUGACCGAAGGCCCUUAUGGGCC [Xeerergeza] (Eterna round: R96, puzzle: Exclusion NG 1)”, the “apparent KD of MS2 coat protein” value was determined as 79.8 nM (input ligand: FMN 200 uM), 20.6 nM under setting [1] and 29.6 nM (input ligand: none).

Consider “AAGACACAUGAGGAUCACCCAUGUGAGGAUAUUCGAUGCUAAGCGUAAGCUUAGUAUCGGAGAAGGCACAAAGG [Salishxclusion 6 - Jieux - Exclusion 1] (Eterna round: R97, puzzle: Exclusion 1)”, for which the “apparent KD of MS2 coat protein” value by setting is: (input ligand: FMN 200 uM) 128 nM; (input ligand: none) 48.2 nM.

On to “AAGACGCGUGUAAGGAUAUCGAAAGCCCGAGGCGACGAGAAGGUACAUGAGGAUCACCCAUGUGCAGAUCACAA [BmEX4 B.3] (Eterna round: R97, puzzle: Brourd's mod of Exclusion 4)”, for which the “apparent KD of MS2 coat protein” value is, setting by setting: (input ligand: FMN 200 uM) 18.9 nM; (input ligand: none) 17.3 nM.

For “AAGAGUAGAGGAUAUACGAAAAAAGAGUCGAAAGACUCGGGACAUGAGGAUCACCCAUGUAGAAGGCUACUCAA [Hyphema Seclusion Mod 62% 5] (Eterna round: R96, puzzle: Exclusion 2)”, under setting [1], the “apparent KD of MS2 coat protein” value is 19.4 nM.

For the sequence “AAGAUACAUGAGGAUCACCCAUGUUAGGAUAUACGCAUGCAUGCAUGCAUGCAUGCAAGUAGAAGGAACCAUGC [Design #3] (Eterna round: R97, puzzle: Exclusion 1)”, the “apparent KD of MS2 coat protein” value by setting is: (input ligand: FMN 200 uM) 29.2 nM; (input ligand: none) 28.4 nM.

As for “AAGAUGCGGAUAGGAUAUGGAAAAAAAAAAAAAUUAGAAGGGUUGGUUAAAAUACAUGAGGAUCACCCAUGUGAAUCAUGAGAA [AK ExNG1-2.1] (Eterna round: R96, puzzle: Exclusion NG 1)”, the “apparent KD of MS2 coat protein” value (input ligand: FMN 200 uM) turned out to be 159 nM, the “apparent KD of MS2 coat protein” value under setting [1] was determined as 127 nM and the “apparent KD of MS2 coat protein” value (input ligand: none) came out at 159 nM.

Turning to “AAGAUGCGGAUAGGAUAUGGAAAGAAGGAAAGACCAGAAGGAUUGGUCAUAUAACAUGAGGAUCACCCAUGUAUAUGUUGUGAA [AK ExNG1-3.1] (Eterna round: R96, puzzle: Exclusion NG 1)”, the “apparent KD of MS2 coat protein” value under setting [1] amounted to 13 nM.

As for “AAGAUGCGGAUAGGAUAUGGAAAUUAAUAAAGACCAGAAGGAUUGGUCACACAACAUGAGGAUCACCCAUGUGUGUGUUGUGAA [AK ExNG1-5] (Eterna round: R96, puzzle: Exclusion NG 1)”, the “apparent KD of MS2 coat protein” value under setting [1] was found to be 10.6 nM.

On to “AAGAUGUGAGGAUAUGUAUCGCAUAUAGAGCGAACACUAGGAUAGAAGGCACAUGAGGAUCACCCAUGUGAUCG [Eternabot (L2) Solution 73] (Eterna round: R97, puzzle: Exclusion 4)”, for which the “apparent KD of MS2 coat protein” value (input ligand: FMN 200 uM) is 39.9 nM and the “apparent KD of MS2 coat protein” value (input ligand: none) is 45.3 nM.

In the case of “AAGCAGUCAGGAUAUCGUUAAUUUAGUUGUUUGUAUUAGUUCGAGAAGGGACAUGAGGAUCACCCAUGUAAGAA [Ex4 #43] (Eterna round: R97, puzzle: Exclusion 4)”, the “apparent KD of MS2 coat protein” value by setting is: (input ligand: FMN 200 uM) 40.5 nM; (input ligand: none) 41 nM.

“AAGCCCUGAGGAUAUCCUUACUCGCACAUGAGGAUCACCCAUGUCCUCCUCCGGGCUUCGGGAGAAGGCAGGUCUC [Megrez-7.7] (Eterna round: R97, puzzle: Exclusion 5)”: the “apparent KD of MS2 coat protein” value by setting is: (input ligand: FMN 200 uM) 40.1 nM; (input ligand: none) 56.6 nM.

Turning to “AAGCCUGGCUCAGGAUAUACAUGAGGAUCACCCAUGUUCUCAGUGAGGCAAGAUAACAACACGACGUAGAAGGGAGCUAGGCCG [Eternabot solution 5] (Eterna round: R96, puzzle: Exclusion NG 2)”, the “apparent KD of MS2 coat protein” value (input ligand: FMN 200 uM) is 81.7 nM, the “apparent KD of MS2 coat protein” value under setting [1] amounted to 17.9 nM and the “apparent KD of MS2 coat protein” value (input ligand: none) was 40 nM.

Regarding “AAGCUUUUUGGUGACCUCGACAUGAGGAUCACCCAUGUCGUAUUAGAACUUCGGACGAUGAUCGUGCUCGUCAUAAG [Eternabot (Original) Solution 43] (Eterna round: R97, puzzle: Sensor, turn-off variant 1)”, the “apparent KD of MS2 coat protein” value turned out to be 598 nM (input ligand: FMN 200 uM) and 677 nM (input ligand: none).

With “AAGGAACGAGGAUAUGCAGGUUGAGCUCGAGUUCGACCGGAACAUGAGGAUCACCCAUGUAGAAGGUGUAUCCC [Vedibe] (puzzle: Exclusion 2)”, the “apparent KD of MS2 coat protein” value under setting [2] was 24 nM.

As for “AAGGCGGUAGGAUAUACAUGAGGAUCACCCAUGUACGCGUGGAUCCCUGUGACGUCAAGUAGAAGGGCCAUAAA [Xetesobiar] (Eterna round: R97, puzzle: Exclusion 3)”, the “apparent KD of MS2 coat protein” value amounted to 27.5 nM (input ligand: FMN 200 uM) and 31.8 nM (input ligand: none).

Consider “AAGUACCGUCACGAAAGUGAUGGUACAGCAAGUAAAUGUACAUGAGGAUCACCCAUGUCCUCAAUUGCUCGUCUUAU [Sensor 3 - 59] (puzzle: Sensor v3, turn-off variant 2)”, for which the “apparent KD of MS2 coat protein” value reads like this: under setting [3], 185 nM; under setting [2], 173 nM; under setting [4], 212 nM.

As for “AAGUACCGUCACGAUAGUGAUGGUACAACAAGCAAAUAUACAUGAGGAUCACCCAUGUCCUCUUUUGCUCGUCUUGU [Sensor 3] (puzzle: Sensor v3, turn-off variant 2)”, the “apparent KD of MS2 coat protein” value reads like this: under setting [3], 798 nM; under setting [2], 237 nM; under setting [4], 900 nM.

On to “AAGUACCGUCACGAUAGUGAUGGUACAACAAGCAGGUGAACAUGAGGAUCACCCAUGUCCUCAAUUGCUCGUCUUAU [Sensor 3 - 73] (puzzle: Sensor v3, turn-off variant 2)”, for which the “apparent KD of MS2 coat protein” value under setting [3] was 156 nM, the “apparent KD of MS2 coat protein” value under setting [2] turned out to be 48.3 nM and the “apparent KD of MS2 coat protein” value under setting [4] came out at 159 nM.

As for “AAGUAGGGAGGAUAUACAUAGAUACAGAUUCAUGUAGAACUACAUGAGGAUCACCCAUGUAGAAGGCCCUAAUA [AJ 37] (Eterna round: R96, puzzle: Exclusion 2)”, the “apparent KD of MS2 coat protein” value runs as follows: (input ligand: FMN 200 uM) 255 nM; under setting [1], 25.1 nM; (input ligand: none) 27.9 nM.

As for “AAGUCGGCAGGAUAUACAUGAGGAUCACCCAUGUAAAUUUUUCGUUUAACUUGAAUGUGUAGAAGGGCCAUAAA [Ex3 #66] (Eterna round: R97, puzzle: Exclusion 3)”, the “apparent KD of MS2 coat protein” value was 24.3 nM (input ligand: FMN 200 uM) and 24.5 nM (input ligand: none).

Turning to “AAGUGCGAAGGAUAUACAUGAGGAUCACCCAUGUUCACCAAAACACAGGUCUCAGACUGUAGAAGGUCGCACAG [Eternabot (Original) Solution 45] (Eterna round: R97, puzzle: Exclusion 3)”, the “apparent KD of MS2 coat protein” value reads like this: (input ligand: FMN 200 uM) 605 nM; (input ligand: none) 59.8 nM.

These data come from the supplement of paper PMC9170038.
